According to US20110263827A1 (AbbVie / Abbott, published 2011):

B1: DVD851 (bispecific antibody)
VH: QVQLQESGPGLVKPSQTLSLTCTVSGYSISSDFAWNWIRQPPGKGLEWMGYISYSGNTRYQPSLKSRITISRDTSKNQFFLKLNSVTAADTATYYCVTAGRGFPYWGQGTLVTVSSASTKGPEVQLVESGGGLVQPGGSLRLSCAASGFTINASWIHWVRQAPGKGLEWVGAIYPYSGYTNYADSVKGRFTISADTSKNTAYLQMNSLRAEDTAVYYCARWGHSTSPWAMDYWGQGTLVTVSS
VL: DIQMTQSPSSMSVSVGDRVTITCHSSQDINSNIGWLQQKPGKSFKGLIYHGTNLDDGVPSRFSGSGSGTDYTLTISSLQPEDFATYYCVQYAQFPWTFGGGTKLEIKRTVAAPSVFIFPPDIQMTQSPSSLSASVGDRVTITCRASQVIRRSLAWYQQKPGKAPKLLIYAASNLASGVPSRFSGSGSGTDFTLTISSLQPEDFATYYCQQSNTSPLTFGQGTKVEIKR
notes: DVD-Ig; HC S, LC L; variable parts only
B2: DVD759 (bispecific antibody)
VH: B1 VH
VL: DIQMTQSPSSMSVSVGDRVTITCHSSQDINSNIGWLQQKPGKSFKGLIYHGTNLDDGVPSRFSGSGSGTDYTLTISSLQPEDFATYYCVQYAQFPWTFGGGTKLEIKRTVAAPDIQMTQSPSSLSASVGDRVTITCRASQVIRRSLAWYQQKPGKAPKLLIYAASNLASGVPSRFSGSGSGTDFTLTISSLQPEDFATYYCQQSNTSPLTFGQGTKVEIKR
notes: DVD-Ig; HC S, LC S; variable parts only
B3: DVD337 (bispecific antibody)
VH: QVQLQESGPGLVKPSQTLSLTCTVSGYSISSDFAWNWIRQPPGKGLEWMGYISYSGNTRYQPSLKSRITISRDTSKNQFFLKLNSVTAADTATYYCVTAGRGFPYWGQGTLVTVSSASTKGPEVQLVESGGGLVQPGGSLRLSCAASGYTFTNYGMNWVRQAPGKGLEWVGWINTYTGEPTYAADFKRRFTFSLDTSKSTAYLQMNSLRAEDTAVYYCAKYPHYYGSSHWYFDVWGQGTLVTVSS
VL: DIQMTQSPSSMSVSVGDRVTITCHSSQDINSNIGWLQQKPGKSFKGLIYHGTNLDDGVPSRFSGSGSGTDYTLTISSLQPEDFATYYCVQYAQFPWTFGGGTKLEIKRTVAAPDIQMTQSPSSLSASVGDRVTITCSASQDISNYLNWYQQKPGKAPKVLIYFTSSLHSGVPSRFSGSGSGTDFTLTISSLQPEDFATYYCQQYSTVPWTFGQGTKVEIKR
notes: as for B2
B4: DVD849 (bispecific antibody)
VH: QVQLQESGPGLVKPSQTLSLTCTVSGYSISSDFAWNWIRQPPGKGLEWMGYISYSGNTRYQPSLKSRITISRDTSKNQFFLKLNSVTAADTATYYCVTAGRGFPYWGQGTLVTVSSASTKGPEVQLVESGGGLVQPGGSLRLSCAASGFTISDYWIHWVRQAPGKGLEWVAGITPAGGYTYYADSVKGRFTISADTSKNTAYLQMNSLRAEDTAVYYCARFVFFLPYAMDYWGQGTLVTVSS
VL: DIQMTQSPSSMSVSVGDRVTITCHSSQDINSNIGWLQQKPGKSFKGLIYHGTNLDDGVPSRFSGSGSGTDYTLTISSLQPEDFATYYCVQYAQFPWTFGGGTKLEIKRTVAAPSVFIFPPDIQMTQSPSSLSASVGDRVTITCRASQDVSTAVAWYQQKPGKAPKLLIYSASFLYSGVPSRFSGSGSGTDFTLTISSLQPEDFATYYCQQSYTTPPTFGQGTKVEIKR
notes: as for B1
B5: DVD757 (bispecific antibody)
VH: B4 VH
VL: DIQMTQSPSSMSVSVGDRVTITCHSSQDINSNIGWLQQKPGKSFKGLIYHGTNLDDGVPSRFSGSGSGTDYTLTISSLQPEDFATYYCVQYAQFPWTFGGGTKLEIKRTVAAPDIQMTQSPSSLSASVGDRVTITCRASQDVSTAVAWYQQKPGKAPKLLIYSASFLYSGVPSRFSGSGSGTDFTLTISSLQPEDFATYYCQQSYTTPPTFGQGTKVEIKR
notes: as for B2
B6: DVD780 (bispecific antibody)
VH: EVQLVESGGGLVQPGGSLRLSCAASGYTFTNYGMNWVRQAPGKGLEWVGWINTYTGEPTYAADFKRRFTFSLDTSKSTAYLQMNSLRAEDTAVYYCAKYPHYYGSSHWYFDVWGQGTLVTVSSASTKGPSVFPLAPQVQLQESGPGLVKPSQTLSLTCTVSGYSISSDFAWNWIRQPPGKGLEWMGYISYSGNTRYQPSLKSRITISRDTSKNQFFLKLNSVTAADTATYYCVTAGRGFPYWGQGTLVTVSS
VL: DIQMTQSPSSLSASVGDRVTITCSASQDISNYLNWYQQKPGKAPKVLIYFTSSLHSGVPSRFSGSGSGTDFTLTISSLQPEDFATYYCQQYSTVPWTFGQGTKVEIKRTVAAPSVFIFPPDIQMTQSPSSMSVSVGDRVTITCHSSQDINSNIGWLQQKPGKSFKGLIYHGTNLDDGVPSRFSGSGSGTDYTLTISSLQPEDFATYYCVQYAQFPWTFGGGTKLEIKR
notes: DVD-Ig; HC L, LC L; variable parts only
B7: DVD810 (bispecific antibody)
VH: B6 VH
VL: DIQMTQSPSSLSASVGDRVTITCSASQDISNYLNWYQQKPGKAPKVLIYFTSSLHSGVPSRFSGSGSGTDFTLTISSLQPEDFATYYCQQYSTVPWTFGQGTKVEIKRTVAAPDIQMTQSPSSMSVSVGDRVTITCHSSQDINSNIGWLQQKPGKSFKGLIYHGTNLDDGVPSRFSGSGSGTDYTLTISSLQPEDFATYYCVQYAQFPWTFGGGTKLEIKR
notes: DVD-Ig; HC L, LC S; variable parts only
B8: DVD792 (bispecific antibody)
VH: EVQLVESGGGLVQPGGSLRLSCAASGFTINASWIHWVRQAPGKGLEWVGAIYPYSGYTNYADSVKGRFTISADTSKNTAYLQMNSLRAEDTAVYYCARWGHSTSPWAMDYWGQGTLVTVSSASTKGPSVFPLAPQVQLQESGPGLVKPSQTLSLTCTVSGYSISSDFAWNWIRQPPGKGLEWMGYISYSGNTRYQPSLKSRITISRDTSKNQFFLKLNSVTAADTATYYCVTAGRGFPYWGQGTLVTVSS
VL: DIQMTQSPSSLSASVGDRVTITCRASQVIRRSLAWYQQKPGKAPKLLIYAASNLASGVPSRFSGSGSGTDFTLTISSLQPEDFATYYCQQSNTSPLTFGQGTKVEIKRTVAAPSVFIFPPDIQMTQSPSSMSVSVGDRVTITCHSSQDINSNIGWLQQKPGKSFKGLIYHGTNLDDGVPSRFSGSGSGTDYTLTISSLQPEDFATYYCVQYAQFPWTFGGGTKLEIKR
notes: as for B6
B9: DVD822 (bispecific antibody)
VH: B8 VH
VL: DIQMTQSPSSLSASVGDRVTITCRASQVIRRSLAWYQQKPGKAPKLLIYAASNLASGVPSRFSGSGSGTDFTLTISSLQPEDFATYYCQQSNTSPLTFGQGTKVEIKRTVAAPDIQMTQSPSSMSVSVGDRVTITCHSSQDINSNIGWLQQKPGKSFKGLIYHGTNLDDGVPSRFSGSGSGTDYTLTISSLQPEDFATYYCVQYAQFPWTFGGGTKLEIKR
notes: as for B7
B10: DVD790 (bispecific antibody)
VH: EVQLVESGGGLVQPGGSLRLSCAASGFTISDYWIHWVRQAPGKGLEWVAGITPAGGYTYYADSVKGRFTISADTSKNTAYLQMNSLRAEDTAVYYCARFVFFLPYAMDYWGQGTLVTVSSASTKGPSVFPLAPQVQLQESGPGLVKPSQTLSLTCTVSGYSISSDFAWNWIRQPPGKGLEWMGYISYSGNTRYQPSLKSRITISRDTSKNQFFLKLNSVTAADTATYYCVTAGRGFPYWGQGTLVTVSS
VL: DIQMTQSPSSLSASVGDRVTITCRASQDVSTAVAWYQQKPGKAPKLLIYSASFLYSGVPSRFSGSGSGTDFTLTISSLQPEDFATYYCQQSYTTPPTFGQGTKVEIKRTVAAPSVFIFPPDIQMTQSPSSMSVSVGDRVTITCHSSQDINSNIGWLQQKPGKSFKGLIYHGTNLDDGVPSRFSGSGSGTDYTLTISSLQPEDFATYYCVQYAQFPWTFGGGTKLEIKR
notes: as for B6
B11: DVD820 (bispecific antibody)
VH: B10 VH
VL: DIQMTQSPSSLSASVGDRVTITCRASQDVSTAVAWYQQKPGKAPKLLIYSASFLYSGVPSRFSGSGSGTDFTLTISSLQPEDFATYYCQQSYTTPPTFGQGTKVEIKRTVAAPDIQMTQSPSSMSVSVGDRVTITCHSSQDINSNIGWLQQKPGKSFKGLIYHGTNLDDGVPSRFSGSGSGTDYTLTISSLQPEDFATYYCVQYAQFPWTFGGGTKLEIKR
notes: as for B7

Tests used:
[1] = molecular target: T1, VEGF (UniProt P15692-4 27-191, limits assumed, biotinylated); experiment: direct bind ELISA, C-term VD;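 also: ELISA with antibody or DVD-Ig preparations applied to target antigen-coated plates for 1 h at room temperature, TMB colour development, absorbance read at 450 nm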
T1 construct: ELISA antigen

[2] = molecular target: T2, EGFR (UniProt P00533 25-645, limits assumed, biotinylated); experiment: direct bind ELISA, N-term VD;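 also: antibody or DVD-Ig preparations bound to immobilized target antigen on ELISA plates, 1 h at room temperature, TMB detection read as absorbance at 450 nm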
T2 construct: ELISA antigen; construct not described

[3] = molecular target: T2, EGFR; experiment: direct bind ELISA, C-term VD;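 also: ELISA with antibody or DVD-Ig preparations applied to target antigen-coated plates for 1 h at room temperature, TMB colour development, absorbance read at 450 nm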
[4] = molecular target: T1, VEGF; experiment: direct bind ELISA, N-term VD;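 also: antibody or DVD-Ig preparations bound to immobilized target antigen on ELISA plates, 1 h at room temperature, TMB detection read as absorbance at 450 nm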

Binder | EC50 [1] | EC50 [2] | EC50 [3] | EC50 [4]
B1 | 28.4 nM | 9.36 nM | – | –
B2 | 128 nM | 7.01 nM | – | –
B3 | 0.57 nM | 6.5 nM | – | –
B4 | 59.6 nM | 12.3 nM | – | –
B5 | 528 nM | 14.5 nM | – | –
B6 | – | – | 409 nM | 2.19 nM
B7 | – | – | 228 nM | 0.33 nM
B8 | – | – | 48.6 nM | 0.82 nM
B9 | – | – | 90 nM | 0.72 nM
B10 | – | – | 76.8 nM | 15.9 nM
B11 | – | – | 107 nM | 4.08 nM
